# According to the DeepSol protein solubility set:
# Experiment: soluble on expression in E. coli; label from the status in PepcDB or PDB records
row,Sequence,soluble on expression in E. coli
1,MTDETENVPKTEQEVPNDPESEKEVKEDAKEEVKDLIPEFYSQHGGDPRLIDIAASVWLSGIPTDFITDTYEQFCETIKNIMKMGHKLDVSTVSKIVRIPNLDSNAKNSEHALRALICFSDKKHIYRMMTREAEFAKEEMKVELIEELPSDALEISEDDKCLLLNGLVEAEDAGDDVDVGGGDDDEIDELMDHDDEGGHDEHEEDEESDVKKEEEKGSEKKEKKPEPPKKKVYEDEDEKAPFEMYWDGAPEFQWRLCEGPRDEKKLIIDNLLWADLNNVFIYRTIQKSTTCEINFPTRFNSDGNRTCHGKLTLFFPGNVAIMDEALKHLVYFRSGDGRRIKVFLPQTTVSLKRKEEFEGKLGRVIKPTERMMQLIVKILPDGYTPTLDEACAWFPLQAVIQCDLVNDEMGNPCAVVKFETAEEAVAAHAGKSFVTIVQKSMITVKDSEGNEKEEEKETETHCNVFMRGGIIMGF,not soluble
2,MGSDKIHHHHHHMKASLEQSSLPCRRFGRTGLSMPVLSLGGMRFQQSWTDLEAEVITSESQQLLKDILERAVACGFHHVETARHYGSSERQLGWALRDVLDPQRLLQSKVPPREDPKVFEAELALSFERLGCERLDLVAIHGLNLSEHLEQTLRPGGCMDVLRRWQGDGRIGHVGFSTHGPTDLIVQAIETDAFDYVNLHWYFIYQDNDPALDAAARHDLGVFIISPTDKGGHLHSPSSQLLELCAPLHPIVFNDLFCLQDPRVHTISVGAARPSDLDRHLEAVDLLQSAAELLPPVQQRLVDAAQLALGEAWWTSWQRGLPPWQESPGEINLPILLWLHNLVEAWGMEGYAKARYGLLGSGSHWFPGANAEALDADVSETALREVLVNSPWCDQIPGLLRRLRNRLGGHPQQRLTSV,not soluble
3,MIRYWKLLFSLAVASVLLVGCGTKEHETTQAAKEEQTADDQKPSSDAPSSKNPSPSKEAKEQTSTKKNEEEQRAAGGGQPAASQPTISLSYQDGNQTVTKTATLQTSNNQHFSLYVLEGWTLDAEEPGADVLLHGDAFARIRLLSEGETNYEQLAQEHAQAVDANAARQQTNGLPKPFADAVWYTAQADGVTVHVIASAQPTPMLLTVHAPSNEDVLGAVLAMAATLQKQ,not soluble
4,MNLQIKHAIFVLGIFLQVQGIKDTSIKIFSSEIKNIDKTPRIETIESTSTVHKVSTMKRIFDLPKLRTKRSALFPAANICPQESLRQILASLQEYYRLRVCQEVVWEAYRIFLDRIPDTEEYQDWVSLCQKETFCLFDIGKNFSNSQEHLDLLQQRIKQRSFPGRKDETASMETLEAPTEAPVVPTDVSRMSLGPFPLPSDDTDLKEILSVTLKDIQKPTTESKTEPIHVSEFSSEEKVEFSISLPNHRFKAELTNSGSPYYQELVGQSQLQLQKIFKKLPGFGEIRVLGFRPKKEEDGSSSTEIQLMAIFKRDHAEAKSPDSHLLSLDSNKIESERIHHGVIEDKQPETYLTATDLKKLIIQLLDGDLSLVEGKIPFGDEVTGTLFRPVTEPDLPKPLADVTEDATLSPELPFVEPRLEAVDREGSELPGMSSKDSSWSPPVSASISRSENLPSFTPSIFSLDAQSPPPLMTTGPTALIPKPTLPTIDYSTIRQLPLESSHWPASSSDRELITSSHDTIRDLDGMDVSDTPALSEISELSGYDSASGQFLEMTTPIPTVRFITTSSETIATKGQELVVFFSLRVANMPFSYDLFNKSSLEYQALEQRFTDLLVPYLRSNLTGFKQLEILSFRNGSVIVNSKVRFAKAVPYNLTQAVRGVLEDLRSTAAQGLNLEIESYSLDIEPADQADPCKLLDCGKFAQCVKNEWTEEAECRCRQGHESHGTLDYQTLNLCPPGKTCVAGREQATPCRPPDHSTNQAQEPGVKKLRQQNKVVKKRNSKLSAIGFEEFEDQDWEGN,soluble
5,MAHHHHHHMLRCSMLRRSMGPGASYVNTVFDTVAKRYDLMNDLLSLGIHRRWKQHFVNDYVRPCPGGKFLDVAGGTGDIAFRIIDGVRLKEEVFGLVPTLRYLTEVVVLDANENMIREGEARAAREGYLDVKWVIGKGEELPFDDMSFDSYTVSFGIRNFSDRPKALREAYRVLKVGGVLNVLEFSKVTCPFLSLPYDVWSYGFIPMAGQILVDRESYQYLVDSIRAFPDQEEFAKMISDAGFGYVRYENLTGGIACIHTAVKTEAVRVKPEKSPLESVATKAKEEKNSVDDEQLNPA,not soluble
6,MSDQMRIPCVIMRAGTSKGIFLKGNDLPADQELRDKVILRIFGSPDVRQIDGLAGADPLTSKLAIIGPSTHPDADVDYTFAQVSITDAVVDYNGNCGNISAGVGPFAIDESFVKAVEPMTRVCIHNTNTGKLLYAEVEVEDGKAKVSGDCKIDGVPGTNAPELMDFSDTAGAATGKVLPTGNVVDVLSTSKGDIDVSIVDVANPCIFVHAKDVNMTGTETPDVINGNADLLAYLEEIRAKCCVKIGMAATEKEASEKSPAFPMIAFVTKPEDYVDFSTGNTISGDDVDLVSRLMFMQVLHKTYAGTATACTGSAARIPGTIVNQVLRDTGDEDTVRIGHPAGVIPVVSIVKDGKVEKAALIRTARRIMEGYVYVEKAKLVGSAWSHPQFEK,soluble
7,MHVWPVQDAKARFSEFLDACITEGPQIVSRRGAEEAVLVPIGEWRRLQAAARPSLKQLLLSDSARTEMLVPERGKARRRQVEPLR,soluble
8,METAKEMTRESLPIKCLEAVILGIYLTNGQPSIERFPISFKTYFSGNYFHHVVLGIYCNGRYGSLGMSRRAELMDKPLTFRTLSDLIFDFEDSYKKYLHTVKKVKIGLYVPHEPHSFQPIEWKQLVLNVSKMLRADIRKELEKYARDMRMKGLCSH,soluble
9,MTRHQTHLPFHIVQEGNSIDKPPYSYVALIAMAIDASPDKRMTLNQIYKFIEAKFPYYRDADAKRKQGWQNSIRHNLSLNDCFVKKARDGQSCANDRKGNYWQMVADNAPQFDNGNFKRRRVKRLGIGKMGYANTTETTETGTILQQQLPFFNGLKWPQNIQTMDPFQFFKFQYPNSITDSANTSQINNSSSSSSSFDTSIYTSAFPIPTSHFDTNLVAPSQPPPVVSDVEVVPSDTVKEEVLVDMKPLIPGISSTTFLTSLQMTDPRSIEQQQLLSTASNMYPNAFMPPYTNWSCQPTTTFTGLSFDDPSLYGYGQQFPASS,not soluble
10,NGFDREMRTRILGMVPQATVESYQPIDDWRALAEKVKAHEHVTAVAPFTQMQGMLSANGAVQTVMVDAVDPLEEAKVSIIPDFFKQGSLAELKAGGFGIVIGQLAAQKLGVGIGDKVTLILPEVAVTPAGVFPRMKRFTVVGTFRVGAGELDGGLSLIHLEDAARLQRWKTNQVQGLRLKLDDLFQAPRVAWEIARTLTDNDFYARDWTRSHGNLYQAIRMEKT,not soluble
11,MWEANELSSTNTFSHQAEMDWPSANWWQRYQDAQLNHLIEEALQHSPSLCMAMARLKGAQGFARQAGAIRSFDLGLAASATESKVSERYQSATPPDGWNDYGTLTLNFQYDFDFWGKNRAAVVAATSELAAAEAESVAARLMISTSIANAYAELARLYANQETVHAALQVRNKTVELLEKRYANGLETLGSVSQAKAVAASVEAELLGIQESIQLQKNALAALVGQGPDRAASIEEPHITLTSRYGLPSEAGVGLLGHRADITAARWRAEAAAQQVGIAQAQFYPDVTLSAFIGYQAFGLDHLFDSGNDAGAIGPAIYLPLFTGGRLEGQLTSAEARYQEAVAQYNGTLVQALHEIADVVTSSQALQARINKTEQAVQQAEQALHIATNRYQGGLATYLDVLVAEESLLNNQRALVNLQSRAFSLDLALIHALGGGFETTES,soluble
12,RLSDVLSADVYQQAHSPLSLALGVDIGGHPMVVDLAKMPHLLVAGTTGSGKSVGINAMILSILFKASPEQVRLIMVDPKMLELSVYDGIPHLLTPVVTDMKEAASALRWCVEEMERRYRLMAALGVRNLAGYNTKITEAAANGQPLLNPLWKPVDSMDETAPELQALPYVVVVIDELADMMMVVGKKVEQLIARIAQKARAAGIHMILATQRPSV,not soluble
13,MGLADDAPLGYLLYRVGAVLRPEVSAALSPLGLTLPEFVCLRMLSQSPGLSSAELARHASVTPQAMNTVLRKLEDAGAVARPASVSSGRSLPATLTARGRALAKRAEAVVRAADARVLARLTAPQQREFKRMLEKLGSD,not soluble
14,MLPQHDFIFFFFAFSILSPSPPPLSSFSSPPPPSFSFFIASTSFFSSQPPSHPRVKKCIDTHTTPSTLTFFSAHHPLASPKIHYEVVLYYSFFFKFRLRLLLVSVAHQLLE,not soluble
15,GMEQLQKRKIYDTTASNASTGILNGKSSNVLNWDDVRFSWAYPLYKNMLANFWTPFEINMSHDAKQFPTLTETEQEAFKKIIGLLAFLDSVQTDYSMRAAEYLTDSSLAALMSVLSFQEVVHNQSYSYVLSSLVPKATQDEIFEYWKHDDVLKERNEFIIDGYEKFVDNPTPKTFLESIVYDVILEGLNFYSGFAFFYNLARNQKMVSTSTMINYINRDEQLHVYLFTNIFKELLVEFPELNTEETKTFVKTTLMKAADLEKDWFRYIIGDKIPGINPEDMETYISFIANKRAVQLGMEKPYPEIKHNPMKWIRAYEDVNSGKSDFFEQKSRQYAKVSADNGFDEL,soluble
16,VKLTDVDFAVEASGMVRAFNQAGVLDVSDVHVAQRLCALAGESDERVALAVAVAVRALRAGSVCVDLLSIARVAGHDDLPWPDPADWLAAVRASPLLADPPVLHLYDDRLLYLDRYWREEEQVCADLLALLTSRRPAGVPDLRRLFPTGFDEQRRAAEIALSQGVTVLTGGPGTGKTTTVARLLALVAEQAELAGEPRPRIALAAPTGKAAARLAEAVRREMAKLDATDRARLGDLHAVTLHRLLGAKPGARFRQDRQNRLPHNVIVVDETSMVSLTLMARLAEAVRPGARLILVGDADQLASVEAGAVLADLVDGFSVRDDALVAQLRTSHRFGKVIGTLAEAIRAGDGDAVLGLLRSGEERIEFVDDEDPAPRLRAVLVPHALRLREAALLGASDVALATLDEHRLLCAHRDGPTGVLHWNRRVQAWLAEETGQPPWTPWYAGRPLLVTANDYGLRVYNGDTGVVLAGPTGLRAVISGASGPLDVATGRLGDVETMHAMTIHKSQGSQVDEVTVLMPQEDSRLLTRELLYTAVTRAKRKVRVVGSEASVRAAIARRAVRASGLRMRLQSTGCG,soluble
17,MITEKRHELILTELSKQDFLTLQELIERTGCSASTIRRDLSKLQKFGKLKRVHGGATLNQSSALEPNLADKRSTNLREKQEIGRLAASQIENRDCVFLDAGSTTLEMIPYIKASDIIVVTNGLTHVEELLKHGIRTLIIGGEVKSTTFATVGASALETLRRYRFDKVFLGMNGIDLKYGLTTPDEQEAIIKHHAMQLGTQVYVLIDHDKYEKVYFAHVPLEEGVSIITSKKAQSLKQFHLFAGQYNFIGGTLLEHHHHHH,soluble
18,MRYIRLCIISLLATLPLAVHASPQPLEQIKLSESQLSGRVGMIEMDLASGRTLTAWRADERFPMMSTFKVVLCGAVLARVDAGDEQLERKIHYRQQDLVDYSPVSEKHLADGMTVGELCAAAITMSDNSAANLLLATVGGPAGLTAFLRQIGDNVTRLDRWETELNEALPGDARDTTTPASMAATLRKLLTSQRLSARSQRQLLQWMVDDRVAGPLIRSVLPAGWFIADKTGAGERGARGIVALLGPNNKAERIVVIYLRDTPASMAERNQQIAGIGAALIEHWQR,soluble
19,QTVLKPKVYVRARPKDMNGQGALLSGSVVDIGSGAIENRGGLIAGREALILNAQNIKNLQGDLQGKNIFAAAGSDITNTGSIGAEN,not soluble
20,MSVDSEETSSNGVVPPNSLPPKPEARFGRHVRSFSVDSDFFDDLGVTEEKFIATSSGEKKKGNHHHSRSNSMDGEMSSASFNIESILASVSGKDSGKKNMGMGGDRLAELALLDPKRAKRILANRQSAARSKERKIRYTGELERKVQTLQNEATTLSAQVTMLQRGTSELNTENKHLKMRLQALEQQAELRDALNEALRDELNRLKVVAGEIPQGNGNSYNRAQFSSQQSAMNQFGNKTNQQMSTNGQPSLPSYMDFTKRG,soluble
